Data reported in paper PMC12280161, “Reconstitution of circadian clock in synthetic cells reveals principles of timekeeping” (Nature Communications, 2025).
Numbering of substitutions follows the chain as printed. Names and notes keep the numbering of the source.

Biological target: T1, KaiC (FLAG-seKaiC-1-519) (Synechococcus elongatus, UniProt Q79PF4 1-519, initially hyperphosphorylated due to its preparation and storage at low temperatures (residues not given))
T1 construct: KaiC of Synechococcus elongatus, residues 1-519; In the model KaiC is assigned as hexamers; not measured here
T1 sequence (looked up): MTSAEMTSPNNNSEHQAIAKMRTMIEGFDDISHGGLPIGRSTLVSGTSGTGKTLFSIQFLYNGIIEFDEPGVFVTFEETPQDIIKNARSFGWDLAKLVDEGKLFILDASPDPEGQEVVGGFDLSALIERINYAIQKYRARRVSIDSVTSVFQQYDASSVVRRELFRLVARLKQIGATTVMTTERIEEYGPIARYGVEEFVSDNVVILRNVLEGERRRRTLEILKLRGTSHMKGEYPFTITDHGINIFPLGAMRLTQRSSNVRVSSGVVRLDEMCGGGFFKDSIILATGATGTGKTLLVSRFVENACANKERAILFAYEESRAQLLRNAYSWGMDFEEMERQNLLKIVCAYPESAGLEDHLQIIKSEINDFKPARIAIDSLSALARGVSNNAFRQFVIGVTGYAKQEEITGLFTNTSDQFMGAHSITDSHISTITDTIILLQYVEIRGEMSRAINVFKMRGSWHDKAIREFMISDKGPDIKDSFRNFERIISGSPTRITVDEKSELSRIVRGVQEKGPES
Experiment: other fluorescence titration; fluorescence quenching of KaiB-6IAF: 25 µL of a 50:50 mixture of KaiB:KaiB-6IAF at 7 µM added to 25 µL of serially diluted KaiC in a black clear-bottom 96-well plate; mean intensity followed for 22 h; without KaiA
Settings: both partners purified

B1: KaiB-6IAF (seKaiB-1-102-K25C-FLAG labelled with 6-iodoacetamidofluorescein) (natural protein, Synechococcus elongatus, UniProt Q79PF5 1-102, looked up)
chain: MSPRKTYILKLYVAGNTPNSVRALCTLKNILEVEFQGVYALKVIDVLKNPQLAEEDKILATPTLAKVLPLPVRRIIGDLSDREKVLIGLDLLYGELQDSDDF
modifications: 6-(iodoacetamido)fluorescein (6IAF), thiol-reactive fluorophore, on KaiB-K25C
notes: KaiB of Synechococcus elongatus, residues 1-102, with K25C; In the model KaiB is assigned as tetramers; not measured here; also called fluorescent KaiB; fluorescently labeled KaiB
Q: Does B1 bind?
A: Result: binds

B2: KaiB (seKaiB-1-102-FLAG) (natural protein, Synechococcus elongatus, UniProt Q79PF5 1-102, looked up)
chain: B1 chain with C25K
notes: KaiB of Synechococcus elongatus, residues 1-102; Present as half of the 50:50 KaiB:KaiB-6IAF mixture; gives no signal of its own; also called unlabelled KaiB
Q: Does B2 bind?
A: Result: binds
